Experimental data reported in the supplement of paper PMC12338614.
± gives the uncertainty stated by the source.

B1: library; numbered along this chain (parent)
chain: MEVVDPQQLGMFTEGELMSVGMDTFIHRIDSTEVIYQPRRKRAKLIGKYLMGDLLGEGSYGKVKEVLDSETLCRRAVKILKKKKLRRIPNGEANVKKEIQLLRRLRHKNVIQLVDVLYNEEKQKMYMVMEYCVCGMQEMLDSVPEKRFPVCQAHGYFCQLIDGLEYLHSQGIVHKDIKPGNLLLTTGGTLKISDLGVAEALHPFAADDTCRTSQGSPAFQPPEIANGLDTFSGFKVDIWSAGVTLYNITTGLYPFEGDNIYKLFENIGKGSYAIPGDCGPPLSDLLKGMLEYEPAKRFSIRQIRQHSWFRKKHPPAEAPVPIPPSPDTKDRWRSMTVVPYLEDLHGADEDEDLFDIEDDIIYTQDFTVPGQVPEEEASHNGQRRGLPKAVCMNGTEAAQLSTKSRAEGRAPNPARKACSASSKIRRLSACKQQ

Variants of: B1
Test: STK11 functional score (HeLa growth suppression), rescaled enrichment; synonymous median = 1, nonsense median = 0 (normalised score)
Settings: with HeLa; variant type: missense
Procedure, shortened: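 The values are functional scores: wild-type-corrected log ratios of post- versus pre-selection abundance, rescaled to synonymous and nonsense medians, merged over codons and replicate transfections, and carrying bootstrapped error. They derive from codon-randomised (POPCode), codon-optimised STK11 libraries that Bxb1 integrated at an AAVS1 landing pad in HeLa, with three transfections for each of three regions. Sequencing of tiled gDNA amplicons ran on NextSeq, at ~2 million reads per tile.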

Compared with Q123L, D277G is higher in STK11 functional score: 0.679 ± 0.16 for the first, 1.16 ± 0.2 for the second.

I192M and S404T are within error of each other in STK11 functional score: 1.25 ± 0.61 for the first, 1.23 ± 0.67 for the second.

First: W308V
Second: Y272P
The STK11 functional score of the first is lower: -0.266 ± 0.088 for the first, 1.38 ± 0.45 for the second.

First: L102W
Second: K64N
The STK11 functional score of the first is higher: 1.2 ± 0.079 for the first, 0.93 ± 0.15 for the second.

Compared with F148W, M22T is higher in STK11 functional score: 0.336 ± 0.079 for the first, 1.63 ± 0.51 for the second.

F366E and I361M are within error of each other in STK11 functional score: 1.6 ± 0.14 for the first, 1.09 ± 0.39 for the second.

First: G233Y
Second: I111W
The STK11 functional score of the first is higher: 1.04 ± 0.94 for the first, -0.448 ± 0.08 for the second.

G58M and E138V are within error of each other in STK11 functional score: 0.219 ± 0.094 for the first, 0.367 ± 0.2 for the second.

First: L286H
Second: V66Y
The STK11 functional score of the first is lower: 0.00834 ± 0.071 for the first, 1.12 ± 0.38 for the second.

Going from A200G to K423Y, the STK11 functional score rises from 0.439 ± 0.33 to 1.41 ± 0.29.

Compared with C278Q, F309G is lower in STK11 functional score: 0.612 ± 0.12 for the first, -0.12 ± 0.08 for the second.

A377S and I29E are within error of each other in STK11 functional score: 1.24 ± 0.24 for the first, 1.4 ± 0.7 for the second.

M11T and R331G are within error of each other in STK11 functional score: 1.23 ± 0.65 for the first, 1.41 ± 0.16 for the second.

L183A and Q220G are within error of each other in STK11 functional score: 0.587 ± 0.29 for the first, 0.849 ± 0.17 for the second.

V150R and M335A are within error of each other in STK11 functional score: 1.17 ± 0.25 for the first, 1.51 ± 0.16 for the second.

L102V and G61L are within error of each other in STK11 functional score: 0.912 ± 0.083 for the first, 0.588 ± 0.27 for the second.

Q399Y and Y166V are within error of each other in STK11 functional score: 1.42 ± 0.2 for the first, 1.14 ± 0.22 for the second.

S283Y and V116H are within error of each other in STK11 functional score: 0.69 ± 0.5 for the first, 1.18 ± 0.58 for the second.

K64R and V133D are within error of each other in STK11 functional score: 1.4 ± 0.17 for the first, 1.53 ± 0.15 for the second.

I224K and S19Y are within error of each other in STK11 functional score: 1.19 ± 0.26 for the first, 1.01 ± 0.15 for the second.

D162L and K262H are within error of each other in STK11 functional score: 1.04 ± 0.23 for the first, 1.52 ± 0.42 for the second.

R384D and V143S are within error of each other in STK11 functional score: 1.2 ± 0.15 for the first, 1.44 ± 0.36 for the second.

Compared with P38L, D68P is higher in STK11 functional score: 0.812 ± 0.14 for the first, 1.08 ± 0.12 for the second.

Compared with C132S, D229G is higher in STK11 functional score: 0.556 ± 0.09 for the first, 1.03 ± 0.24 for the second.

P294T and K82C are within error of each other in STK11 functional score: 1.09 ± 0.31 for the first, 1.23 ± 0.15 for the second.

First: K388L
Second: F148D
The STK11 functional score of the first is higher: 0.826 ± 0.34 for the first, -0.396 ± 0.083 for the second.

S216G and Y246F are within error of each other in STK11 functional score: 0.926 ± 0.23 for the first, 0.678 ± 0.097 for the second.

S307I and T209E are within error of each other in STK11 functional score: 1.02 ± 0.091 for the first, 1.17 ± 0.18 for the second.

D176V and L290G are within error of each other in STK11 functional score: 0.0775 ± 0.082 for the first, 0.0144 ± 0.1 for the second.

L286I and D330V are within error of each other in STK11 functional score: 1.36 ± 0.24 for the first, 1.46 ± 0.3 for the second.

Compared with N393F, E33L is lower in STK11 functional score: 1.52 ± 0.31 for the first, 1 ± 0.13 for the second.

First: V150G
Second: K82D
The STK11 functional score of the first is lower: 0.594 ± 0.14 for the first, 1.17 ± 0.19 for the second.

T250L and G346A are within error of each other in STK11 functional score: 1.45 ± 0.1 for the first, 1.57 ± 0.28 for the second.

First: G61W
Second: D277C
The STK11 functional score of the first is lower: 0.248 ± 0.097 for the first, 1.32 ± 0.18 for the second.

P38S and P315I are within error of each other in STK11 functional score: 1.06 ± 0.12 for the first, 1.21 ± 0.28 for the second.

Compared with M127W, D194H is lower in STK11 functional score: 0.627 ± 0.31 for the first, -0.252 ± 0.32 for the second.

Compared with I99C, L290Y is lower in STK11 functional score: 1.57 ± 0.18 for the first, -0.205 ± 0.067 for the second.

First: T186N
Second: A218G
The STK11 functional score of the first is lower: 0.218 ± 0.11 for the first, 0.816 ± 0.14 for the second.

E342F and M335I are within error of each other in STK11 functional score: 1.14 ± 0.25 for the first, 1.18 ± 0.55 for the second.

First: A414S
Second: C132Y
The STK11 functional score of the first is higher: 1.57 ± 0.18 for the first, 0.597 ± 0.082 for the second.

P323R and V116E are within error of each other in STK11 functional score: 1.01 ± 0.38 for the first, 1.52 ± 0.76 for the second.

T244L and K64T are within error of each other in STK11 functional score: 1.02 ± 0.094 for the first, 1.08 ± 0.1 for the second.

First: D30E
Second: S169V
The STK11 functional score of the first is higher: 1.13 ± 0.49 for the first, 0.428 ± 0.21 for the second.

First: A76H
Second: H168E
The STK11 functional score of the first is lower: 0.362 ± 0.17 for the first, 1.3 ± 0.24 for the second.

D355G and M22V are within error of each other in STK11 functional score: 1.63 ± 0.25 for the first, 1.13 ± 0.69 for the second.

First: A377T
Second: C132R
The STK11 functional score of the first is higher: 1.59 ± 0.28 for the first, -0.197 ± 0.084 for the second.

K416Q and Y272N are within error of each other in STK11 functional score: 1.46 ± 0.38 for the first, 1.71 ± 0.45 for the second.

Compared with I161R, Q159Y is higher in STK11 functional score: -0.0321 ± 0.14 for the first, 1.03 ± 0.46 for the second.

R87S and L67H are within error of each other in STK11 functional score: 0.989 ± 0.55 for the first, 0.361 ± 0.41 for the second.

A406E and S169T are within error of each other in STK11 functional score: 1.45 ± 0.3 for the first, 1.22 ± 0.74 for the second.

Going from T13V to P373V, the STK11 functional score falls from 1.6 ± 0.25 to 0.868 ± 0.14.

D208P and E291Q are within error of each other in STK11 functional score: 1.62 ± 0.24 for the first, 1.36 ± 0.41 for the second.

Compared with L344W, I79L is lower in STK11 functional score: 1.54 ± 0.19 for the first, 0.451 ± 0.14 for the second.

Going from P6L to E351I, the STK11 functional score rises from 0.99 ± 0.12 to 1.27 ± 0.15.

First: H168Q
Second: P319W
The STK11 functional score of the first is higher: 0.947 ± 0.14 for the first, 0.513 ± 0.25 for the second.

First: G257E
Second: W239T
The STK11 functional score of the first is higher: 1.32 ± 0.47 for the first, -0.0973 ± 0.1 for the second.

G196A and I46T are within error of each other in STK11 functional score: 0.488 ± 0.5 for the first, 1.24 ± 0.27 for the second.

Compared with R297D, P319M is higher in STK11 functional score: 0.0713 ± 0.079 for the first, 1.39 ± 0.12 for the second.

Compared with R426N, V95L is lower in STK11 functional score: 1.58 ± 0.27 for the first, 0.889 ± 0.12 for the second.

Compared with L286T, I111S is lower in STK11 functional score: 1.12 ± 0.14 for the first, 0.535 ± 0.15 for the second.

Going from N226L to Y118C, the STK11 functional score falls from 1.08 ± 0.2 to 0.723 ± 0.082.

First: P315H
Second: E33F
The STK11 functional score of the first is higher: 1.34 ± 0.24 for the first, 0.855 ± 0.23 for the second.

R147A and L72I are within error of each other in STK11 functional score: 0.87 ± 0.19 for the first, 1.19 ± 0.24 for the second.

K329M and I99F are within error of each other in STK11 functional score: 1.55 ± 0.15 for the first, 1.64 ± 0.16 for the second.

First: E349M
Second: P179V
The STK11 functional score of the first is higher: 1.33 ± 0.32 for the first, 0.541 ± 0.089 for the second.

I46R and K108Q are within error of each other in STK11 functional score: 0.979 ± 0.36 for the first, 1.39 ± 0.12 for the second.

N393E and L386G are within error of each other in STK11 functional score: 1.48 ± 0.16 for the first, 1.19 ± 0.34 for the second.

G346L and A43S are within error of each other in STK11 functional score: 1.38 ± 0.15 for the first, 1.34 ± 0.25 for the second.

R75L and G215H are within error of each other in STK11 functional score: 0.841 ± 0.13 for the first, 0.951 ± 0.64 for the second.

M11W and D348T are within error of each other in STK11 functional score: 1.71 ± 0.11 for the first, 1.57 ± 0.27 for the second.

G270L and R87K are within error of each other in STK11 functional score: 0.945 ± 0.13 for the first, 0.613 ± 0.69 for the second.

First: E376A
Second: L290D
The STK11 functional score of the first is higher: 1.4 ± 0.35 for the first, -0.275 ± 0.15 for the second.

Compared with M289E, M392R is higher in STK11 functional score: -0.103 ± 0.1 for the first, 0.973 ± 0.31 for the second.

Going from G279E to T13L, the STK11 functional score rises from 0.538 ± 0.088 to 0.906 ± 0.11.

First: P221M
Second: V20S
The STK11 functional score of the first is lower: 0.39 ± 0.18 for the first, 1.46 ± 0.22 for the second.

L252F and A389Q are within error of each other in STK11 functional score: 1.07 ± 0.39 for the first, 1.18 ± 0.17 for the second.

D23H and G15T are within error of each other in STK11 functional score: 1.22 ± 0.68 for the first, 1.68 ± 0.17 for the second.

I29N and F366S are within error of each other in STK11 functional score: 1.49 ± 0.75 for the first, 1.58 ± 0.13 for the second.

Y118Q and V372Q are within error of each other in STK11 functional score: 1.52 ± 0.14 for the first, 1.49 ± 0.16 for the second.

Compared with G163E, L9C is higher in STK11 functional score: -0.0159 ± 0.21 for the first, 1.54 ± 0.14 for the second.

Y292P and L101S are within error of each other in STK11 functional score: 1.38 ± 0.19 for the first, 1.43 ± 0.37 for the second.

R405G and A377M are within error of each other in STK11 functional score: 1.48 ± 0.22 for the first, 1.51 ± 0.27 for the second.

S428K and D237H are within error of each other in STK11 functional score: 0.386 ± 0.55 for the first, 1.53 ± 0.7 for the second.

With K311D the STK11 functional score was 1.32 ± 0.29.
